According to the supplement of paper PMC10126150:
± gives the standard deviation of the averaged measurements.

Test system: ATP
Assay: switch fluorescence ratio, 500 uM ATP over buffer (Cy3 cluster intensity, sum of 5 cycles each) (fold (ratio)); higher = stronger signal-on switching upon ATP binding; sequences stand for … in TCGTCGGCAGCGTCAGATGTGTATAAGAGACAGTTTTTTTTTTTTTTTTTTTTTTTTT…TC
Details: aptamer strand: ATP DNA aptamer (quencher-CACCTGGGGGAGTATTGCGGAGGAAGG + anchor), 100 nM annealed; ATP concentration: 500 uM
Method in brief: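 For every switch-domain sequence, the fluorescence ratio is the mean of per-cluster values, each being summed target-cycle Cy3 intensity over summed buffer-cycle Cy3 intensity. Clusters outside 100-1000 RFU were excluded. On a modified Illumina MiSeq flow-cell, the Cy3-labelled switching-strand clusters were annealed to 100 nM quencher-labelled ATP aptamer, imaged in selection buffer and then after 15 min with 500 uM ATP at 22 °C. Five such cycles were run, with NaOH stripping and re-annealing between them.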
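Also: ATP exposure 15 min at 22 °C before imaging.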

| Sequence | switch fluorescence ratio |
| --- | --- |
| AGTGTTTGTT | 0.9995 ± 0.0052 |
| AGTTAAAAAT | 0.996 ± 0.022 |
| AGTTAAAATA | 1 ± 0.021 |
| AGTTAAATTT | 0.994 ± 0.035 |
| AGTTAATAAA | 1 ± 0.0019 |
| AGTTACCCGA | 1.04 ± 0.011 |
| AGTTACGGAC | 1.36 ± 0.017 |
| AGTTACGGGA | 1.1 ± 0.03 |
| AGTTAGACAG | 0.9737 ± 0.0062 |
| AGTTAGCAAT | 2.45 ± 0.11 |
| AGTTAGGGCG | 1.04 ± 0.058 |
| AGTTAGGTGT | 1.04 ± 0.044 |
| AGTTAGTAAG | 1.01 ± 0.04 |
| AGTTAGTTAG | 0.987 ± 0.011 |
| AGTTATGTAG | 1.01 ± 0.052 |
| AGTTATGTTT | 0.956 ± 0.051 |
| AGTTCAACCT | 1.65 ± 0.19 |
| AGTTCAGAAC | 0.9899 ± 0.0075 |
| AGTTCGGGCA | 0.998 ± 0.021 |
| AGTTCTAGGA | 0.953 ± 0.03 |
| AGTTCTCAGT | 0.997 ± 0.018 |
| AGTTCTGGTT | 0.965 ± 0.011 |
| AGTTCTGTCG | 1.01 ± 0.09 |
| AGTTCTTGGC | 1.02 ± 0.0042 |
| AGTTGCACGT | 0.954 ± 0.041 |

| Sequence | switch fluorescence ratio |
| --- | --- |
| AGTTGCGTAG | 0.989 ± 0.021 |
| AGTTGCGTTA | 0.963 ± 0.025 |
| AGTTGGCGGG | 1.018 ± 0.005 |
| AGTTGGCTTA | 1.01 ± 0.013 |
| AGTTGGGCAT | 0.995 ± 0.017 |
| AGTTGGGGGA | 0.984 ± 0.014 |
| AGTTGGTCTC | 1.13 ± 0.12 |
| AGTTGTATT | 0.967 ± 0.022 |
| AGTTGTCTCT | 0.979 ± 0.035 |
| AGTTGTGAGT | 0.9726 ± 0.0077 |
| AGTTGTTATT | 1.027 ± 0.0088 |
| AGTTGTTTGT | 0.966 ± 0.016 |
| AGTTGTTTTT | 0.983 ± 0.025 |
| AGTTTAACTA | 1 ± 0.025 |
| AGTTTAAGGA | 1.01 ± 0.025 |
| AGTTTACGAA | 1.01 ± 0.0069 |
| AGTTTACGTG | 1 ± 0.0033 |
| AGTTTCGCGG | 0.9632 ± 0.0037 |
| AGTTTCGCTA | 0.992 ± 0.024 |
| AGTTTCGGGC | 0.974 ± 0.033 |
| AGTTTGAGGA | 1.01 ± 0.014 |
| AGTTTGATAT | 0.999 ± 0.017 |
| AGTTTGCCAG | 0.96403 ± 0.00025 |
| AGTTTGGGCA | 0.975 ± 0.029 |
| AGTTTGGGGC | 0.984 ± 0.045 |

| Sequence | switch fluorescence ratio |
| --- | --- |
| AGTTTGGGGG | 0.966 ± 0.029 |
| AGTTTGGTGT | 0.997 ± 0.026 |
| AGTTTGTGGC | 0.965 ± 0.012 |
| AGTTTGTTGC | 1 ± 0.012 |
| AGTTTTAACG | 0.974 ± 0.073 |
| AGTTTTATCC | 1.006 ± 0.0052 |
| AGTTTTATTT | 0.968 ± 0.032 |
| AGTTTTCCTG | 0.985 ± 0.015 |
| AGTTTTGGGG | 0.981 ± 0.043 |
| AGTTTTTAAA | 1.027 ± 0.0039 |
| AGTTTTTATG | 1.026 ± 0.0028 |
| AGTTTTTCCA | 1.02 ± 0.031 |
| AGTTTTTCGT | 1.01 ± 0.019 |
| AGTTTTTGAG | 1 ± 0.013 |
| AGTTTTTGCT | 0.9736 ± 0.0065 |
| AGTTTTTGTT | 0.987 ± 0.024 |
| AGTTTTTTCG | 0.973 ± 0.023 |
| AGTTTTTTGG | 1.01 ± 0.033 |
| AGTTTTTTTT | 0.997 ± 0.028 |
| ATAAAAAAAG | 1.05 ± 0.021 |
| ATAAAAAGGA | 1.0058 ± 0.00029 |
| ATAAAAGAAG | 1.01 ± 0.041 |
| ATAAACCTTG | 1.16 ± 0.031 |
| ATAAACGTTA | 1.1 ± 0.018 |
| ATAAAGAAGC | 1.02 ± 0.022 |

| Sequence | switch fluorescence ratio |
| --- | --- |
| ATAAAGCGGC | 0.994 ± 0.047 |
| ATAAAGGTCT | 0.984 ± 0.0053 |
| ATAAATGACG | 1.02 ± 0.037 |
| ATAAATGCGT | 1.002 ± 0.0031 |
| ATAACAAGAC | 1.32 ± 0.067 |
| ATAACAGGAT | 0.986 ± 0.033 |
| ATAACGGGGA | 0.999 ± 0.015 |
| ATAAGAATTG | 1.01 ± 0.06 |
| ATAAGACTGT | 1.03 ± 0.018 |
| ATAAGAGGAG | 0.995 ± 0.022 |
| ATAAGCGGAG | 1 ± 0.013 |
| ATAAGCGTGG | 0.995 ± 0.082 |
| ATAAGGAGGT | 1.012 ± 0.0081 |
| ATAAGGAGTT | 1.01 ± 0.045 |
| ATAAGGCCTG | 1.03 ± 0.075 |
| ATAAGGGGGC | 0.989 ± 0.041 |
| ATAAGGGGGT | 0.973 ± 0.016 |
| ATAAGGGTCC | 1.04 ± 0.066 |
| ATAAGGTGAG | 0.998 ± 0.035 |
| ATAAGTCTGT | 1.008 ± 0.0073 |
| ATAAGTGGA | 0.997 ± 0.062 |
| ATAAGTGGGA | 0.986 ± 0.076 |
| ATAATAGGCG | 0.985 ± 0.0028 |
| ATAATCACCT | 1.23 ± 0.019 |
| ATAATCCCGA | 1.02 ± 0.015 |

| Sequence | switch fluorescence ratio |
| --- | --- |
| ATAATCGAGT | 0.9837 ± 0.0076 |
| ATAATGAGGT | 1.01 ± 0.042 |
| ATAATGGCTT | 0.988 ± 0.025 |
| ATAATGGGCA | 0.983 ± 0.064 |
| ATAATGGTC | 1.003 ± 0.008 |
| ATAATGTATA | 0.9835 ± 0.0028 |
| ATAATGTGAA | 1.03 ± 0.017 |
| ATAATGTTGT | 0.991 ± 0.031 |
| ATAATTATCG | 0.972 ± 0.046 |
| ATAATTGAGC | 1.04 ± 0.027 |
| ATAATTGGG | 0.978 ± 0.097 |
| ATAATTTAAT | 0.9986 ± 0.0074 |
| ATAATTTGCC | 1.01 ± 0.05 |
| ATAATTTGGG | 0.99 ± 0.017 |
| ATACAACCTG | 1.106 ± 0.0065 |
| ATACAAGGCA | 0.956 ± 0.053 |
| ATACACGTTA | 1.23 ± 0.013 |
| ATACCAGGCG | 1.24 ± 0.069 |
| ATACCCTGGG | 1.03 ± 0.035 |
| ATACCGGTTG | 1.02 ± 0.015 |
| ATACCGTGAG | 1.05 ± 0.011 |
| ATACGAAGGC | 0.985 ± 0.093 |
| ATACGACGTG | 1.004 ± 0.0083 |
| ATACGAGCAG | 1.067 ± 0.006 |
| ATACGAGTTA | 1.02 ± 0.021 |

| Sequence | switch fluorescence ratio |
| --- | --- |
| ATACGATTTG | 0.971 ± 0.038 |
| ATACGGGAAT | 1.05 ± 0.022 |
| ATACGTTGAA | 1 ± 0.045 |
| ATACTGTCGC | 1.0874 ± 0.0002 |
| ATACTTAGTG | 0.986 ± 0.019 |
| ATACTTGATT | 0.994 ± 0.025 |
| ATACTTTGGT | 0.9944 ± 0.0018 |
| ATAGAAATTG | 1.01 ± 0.035 |
| ATAGAAGGGT | 1.01 ± 0.026 |
| ATAGAATCAA | 1.02 ± 0.022 |
| ATAGACACGC | 1.034 ± 0.0078 |
| ATAGACAGAC | 1.136 ± 0.0095 |
| ATAGACGAGG | 0.9809 ± 0.0011 |
| ATAGAGTTCT | 0.997 ± 0.041 |
| ATAGATCAGC | 0.995 ± 0.025 |
| ATAGATGGCC | 0.95 ± 0.056 |
| ATAGCCCGGG | 0.986 ± 0.011 |
| ATAGCCGTCG | 1.07 ± 0.12 |
| ATAGCTACGC | 1.035 ± 0.003 |
| ATAGCTCTCG | 1.01 ± 0.037 |
| ATAGGAAAAA | 0.963 ± 0.059 |
| ATAGGAGTTG | 1.033 ± 0.0089 |
| ATAGGCCAG | 0.9898 ± 0.0067 |
| ATAGGCGGAG | 0.965 ± 0.02 |
| ATAGGCGGGT | 1.004 ± 0.005 |

| Sequence | switch fluorescence ratio |
| --- | --- |
| ATAGGCTAAA | 1.04 ± 0.044 |
| ATAGGCTAGT | 1.02 ± 0.025 |
| ATAGGCTGTT | 0.986 ± 0.038 |
| ATAGGGACAC | 1.07 ± 0.033 |
| ATAGGGATAG | 1.01 ± 0.047 |
| ATAGGGGAGT | 0.993 ± 0.03 |
| ATAGGGGGGC | 1.01 ± 0.074 |
| ATAGGGGTCG | 1.01 ± 0.076 |
| ATAGGGGTGC | 1.02 ± 0.042 |
| ATAGGGTAAG | 0.965 ± 0.018 |
| ATAGGGTCCG | 0.977 ± 0.024 |
| ATAGGTATCT | 0.988 ± 0.019 |
| ATAGGTATGA | 0.988 ± 0.01 |
| ATAGGTCCGG | 0.9957 ± 0.0041 |
| ATAGGTCTCA | 1 ± 0.013 |
| ATAGGTCTTA | 0.983 ± 0.04 |
| ATAGGTGAGA | 1.06 ± 0.02 |
| ATAGGTTTTT | 0.973 ± 0.024 |
| ATAGTAAAGG | 0.994 ± 0.031 |
| ATAGTACTTT | 1.05 ± 0.044 |
| ATAGTAGCTA | 0.9764 ± 0.0016 |
| ATAGTATGTT | 0.99 ± 0.051 |
| ATAGTATTAT | 0.968 ± 0.015 |
| ATAGTCAAGG | 0.982 ± 0.028 |
| ATAGTCAGAT | 0.969 ± 0.014 |

| Sequence | switch fluorescence ratio |
| --- | --- |
| ATAGTCCCAC | 0.9901 ± 0.009 |
| ATAGTGACCG | 1.01 ± 0.013 |
| ATAGTGAGCG | 1.01 ± 0.025 |
| ATAGTGAGGT | 0.986 ± 0.038 |
| ATAGTGCTGT | 0.97717 ± 0.00097 |
| ATAGTGGGGA | 1.04 ± 0.026 |
| ATAGTTGGGA | 1.018 ± 0.0011 |
| ATAGTTGGTT | 1.01 ± 0.03 |
| ATAGTTTGAT | 1.01 ± 0.022 |
| ATAGTTTTTG | 0.993 ± 0.012 |
| ATAGTTTTTT | 0.977 ± 0.017 |
| ATATAAAGGG | 0.996 ± 0.025 |
| ATATACGGCA | 1.19 ± 0.08 |
| ATATAGGTA | 1.036 ± 0.0097 |
| ATATAGGTTT | 1.01 ± 0.0081 |
| ATATAGTTCG | 0.967 ± 0.047 |
| ATATAGTTTG | 1.001 ± 0.0031 |
| ATATATATCG | 1.01 ± 0.0093 |
| ATATATCGTG | 0.995 ± 0.019 |
| ATATATGGAG | 1.011 ± 0.00029 |
| ATATATGGTG | 1.05 ± 0.02 |
| ATATCAGGGG | 1.13 ± 0.017 |
| ATATCATGGG | 0.982 ± 0.017 |
| ATATCATGTC | 0.9895 ± 0.0032 |
| ATATCATTCA | 1.01 ± 0.019 |
